{"source": "ChEMBL document CHEMBL3525898", "about": "“Pharmacogenomics of gemcitabine metabolism: functional analysis of genetic variants in cytidine deaminase and deoxycytidine kinase” (Drug Metab Dispos, 2013)", "type_in_all_cases": "ADME", "key": {"[1]": {"test_system": "Nc1ccn([C@@H]2O[C@H](CO)[C@@H](O)C2(F)F)c(=O)n1", "assay": "Activity of human recombinant N-terminal His-SUMO fused CDA Lys27Gln mutant expressed in Escherichia coli BL21(DE3) cells assessed as 2',2'-difluorodeoxyuridine formation by liquid chromatography-tandem mass spectrometry"}, "[2]": {"test_system": "Nc1ccn([C@@H]2O[C@H](CO)[C@@H](O)C2(F)F)c(=O)n1", "assay": "Activity of human recombinant N-terminal His-SUMO fused CDA Ala70Thr mutant expressed in Escherichia coli BL21(DE3) cells assessed as 2',2'-difluorodeoxyuridine formation by liquid chromatography-tandem mass spectrometry"}, "[3]": {"test_system": "Nc1ccn([C@@H]2O[C@H](CO)[C@@H](O)C2(F)F)c(=O)n1", "assay": "Activity of human recombinant N-terminal His-tagged wild type DCK expressed in Escherichia coli BL21(DE3) cells assessed as enzyme-mediated […] incubated for 1 min by liquid chromatography-tandem mass spectrometry"}}, "data": [{"substance": "Cytidine deaminase (Homo sapiens; K27Q)", "values": [{"measurement": "Km", "setting": "[1]", "result": 562, "unit": "µM"}, {"measurement": "Vmax", "setting": "[1]", "result": 0.195, "unit": "µmol/min/mg"}]}, {"substance": "Cytidine deaminase (Homo sapiens; A70T)", "values": [{"measurement": "Km", "setting": "[2]", "result": 610, "unit": "µM"}, {"measurement": "Vmax", "setting": "[2]", "result": 0.151, "unit": "µmol/min/mg"}]}, {"substance": "Deoxycytidine kinase (Homo sapiens)", "values": [{"measurement": "Km", "setting": "[3]", "result": 2.15, "unit": "µM"}, {"measurement": "Vmax", "setting": "[3]", "result": 1.06, "unit": "µmol/min/mg"}]}]}
